The test system of this test is hT40, dGA, dGAE and truncated tau fragments. Briefly: Binding ELISA / epitope mapping of anti-tau scAbs with truncated tau proteins and 13mer peptides. Also noted: species or system human. As to conditions: for Tau proteins/fragments with positive scAb reactivity: binding ELISA; for Shortest region bound on hT40: incl. 13mer peptides; for Epitope: residue numbers of SEQ ID NO: 1 (hT40), CDR Tables 1-11. The method, then: A series of binding ELISA was performed using various truncated versions of the tau protein and 13mer peptide libraries spanning the entire hT40 molecule for mapping the epitopes of anti-tau scAbs (Full list of protein antigens used is given in Table 14). In general, ELISA plates were coated with 1 μg/ml hT40 or dGA or dGAE or other truncated versions of the protein and in the case of biotinylated peptides, plates were coated with 5 μg/ml Streptavidin followed by 1 μg/ml biotinylated peptide. The plates were blocked with 2% MPBS and scAb samples added at desired starting concentrations and double diluted across the plate. Binding was detected using anti-Human C Kappa HRP conjugated secondary antibody and the resulting immunoreaction was developed and absorbance values measured as described above.
Selected E specific scAbs and their specific binding to dGAE is shown below (FIG. 8A-E).
Similarly, dGA binding ‘NS’, ‘S’ and ‘M’ group scAbs were subjected to further antigen binding ELISA using shorter tau proteins and biotinylated 13mer peptides as shown below (FIG. 10A-F) and (FIG. 11A-R).

Where [1] appears, read: Table 15, residue numbers of hT40.

We go through 13 molecules from patent US20250355001A1, “METHOD FOR DETECTING A TAU PROTEIN FRAGMENT IN A SAMPLE” (GTINVENT LIMITED, priority 2022, published 2025).

B1: S1D9: anti-tau clone, Table 2; SEQ ID NO: 413 (protein)
scFv: QVQLQESGPSLVKPSQTLSLTCTVSGFSLTSNSVGWVRQAPGKAPEWVAGIDSDGEEGYNPALNSRLSITRDTSKNQVSLSLSRVTSEDTAVYYCGRTYRTDGYAYGYVQAIDYWGPGLLVTVSSEGKSSGASGESKVDDRVMLTQPPSVSGSPGQTVSITCSGSFIGISSVGWFQQLPGSGLRTVIFASDGRPSGVPDRFSNSKSGNTATLTISSLQAEDEADYFCGSSDRTQYTGVFGSGTRLTVLS
modifications: S1D9 amino acid sequence
Take B1: the Epitope is recorded as 367-379. In addition, where the note is “Table 16, NS, S and M clones”, the “Tau proteins/fragments with positive scAb reactivity” value (from here on “Tau proteins/fragments”) was “hT40, 297-390 (dGA), 297-391 (dGAE)” and the “Shortest region bound on hT40” value was 367-379.

B2: 412E10: C-terminal anti-tau clone, Table 5; SEQ ID NO: 147 (protein)
chain: QVQLQESGPSLVKPSQTLSLTCTVSGFSVISDSVAWVRQAPGKVPEWLGASGSSGNKYYNPALKSRLSITRDTSKSQVSLSLSSVTTEDTAVYYCARGIIAGVDVWGRGLLVTVSSEGKSSGASGESKVDDQAVLTQPSSVSGSLGQRVSITCSGSSSNVGYGNYVGWYQQVPGSAPKLLIYGTAIRASGVPDRFSGSRSGDTATLTITSLQAEDEADYYCASYQSNYAFFGSGTRLTVLG
modifications: 412E10 amino acid sequence
For the molecule B2, the Epitope is recorded as 412-441. Also, the “Detection scAb (Epitope)” value (Table 28 (LoD table), residues of hT40) is 412E10 (412-441).

B3: E2B7: dGAE (391E) specific clone, Table 9; SEQ ID NO: 254 (protein)
scFv: QVQLQESGPSLVKPSQTLSLTCTVSGFSLTSWGVAWVRQAPGKALEWLGTMRSGGGTEYNPALKSRLSITRDTSKSQVSLSLSSVTTEDMAMYYCARGYLSGIHYAWGRGLLVSVSSEGKSSGASGESKVDDQAVLTQLSSVSGSLGQRVSITCSGSSSNVGDGDYVGWFQQLPGSAPKLLIYSARNRASGVPDRFSGSRSGNTATLTITSLQAEDEADYYCASIDTSRSHIFGSGTRLTVLG
modifications: E2B7 amino acid sequence
In the case of B3, the “cross-reactivity using hT40, dGA and dGAE antigens” value (ELISA, 'E' group scAbs) is reported as “specific dGAE binding”. The “Tau proteins/fragments” value under setting [1] is reported as 297-391 (dGAE).

B4: NS1G7: anti-tau clone, Table 10; SEQ ID NO: 374 (protein)
scFv: QVQLQESGPSLVKPSQTLSLTCTVSGFSLTSYGVGWVRQAPGKTLEWISSISSGGTTFYNPALKSRLSITRDTSESQVSLSLSSVTTEDTAVYYCTRDVHIYYNDYGAAYGDRDYWGPGLLVTVSSEGKSSGASGESKVDDQAVVTQPPSVSGSPGQRVSITCSGSSSNIGGGNYVSWYQQLPGSGLRTLIYGTTSRASGVPDRFSGSGSGNTATLTISSLQAEDEADYYCASYDTNSGSVFGSGTRLTVLG
modifications: NS1G7 amino acid sequence
Take B4: the “Tau proteins/fragments” value (Table 16, NS, S and M clones) is given as “hT40, 297-390 (dGA), 297-391 (dGAE), 275-305, 337-368”.

B5: S2C6: anti-tau clone, Table 2; SEQ ID NO: 416 (protein)
scFv: QVQLQESGPSLVKPSQTLSLTCTVSGFSLISNSVGWVRQAPGKAPEWVAGIDTDGEEGYNPALKSQYAASDPDTSKSQVSLSLSSVTSEDTAVYYCGRTYRTDGFAYGYVQAIDYWGPGLLLTISSEGKSSGASGESKVDDQAVLTQPSSVSGSLGQRVSITCSGSFIGISSVGWFQQLPGSGLRTIIVASDGRPSGVPDRFSMSKSGNTATLTISSLQAEDEADYFCGSSDRTQYTGVFGSGTRLTVLG
modifications: S2C6 amino acid sequence
Regarding B5, the Epitope was 367-379. Further, where the note is “Table 16, NS, S and M clones”, the “Tau proteins/fragments” value is “hT40, 297-390 (dGA), 297-391 (dGAE), 369-390, 369-391” and the “Shortest region bound on hT40” value is 367-379.

B6: 412B9: C-terminal anti-tau clone, Table 5; SEQ ID NO: 417 (protein)
chain: QVQLQESGPSLVKPSQTLSLTCTVSGFSVISDSVAWVRQAPGKVPEWLGASGSSGNKYYNPALKSRLSITRDTSKSQVSLSLSSVTTEDTAVYYCARGIIAGVDVWGRGLLVSVSSEGKSSGASGESKVDDQAVLTQPSSVSGALGQRVSITCSGSSSNVGYGDYVGWYQQVPGSAPKLLIYGAASRASGVPDRFSGSRSGNTATLTISSLQAEDEADYYCASYDSSDGGVFGSGTRLTVLG
modifications: 412B9 amino acid sequence
In the case of B6, the Epitope is reported as 412-441.

B7: E2A6: dGAE (391E) specific clone, Table 9; SEQ ID NO: 252 (protein)
scFv: QVQLQESGPSLVKPSQTLSLTCTVSGFSLTDWGVAWVRQAPGKALEWLGTMRSGGTTDDNPALKSRLSITRDTSKSQVSLSLSSVTTEDMAMYYCARGYLSGVHYAWGRGLLVTVSSEGKSSGASGESKVDDRVVRTQPSSVSKSLGQSVSITCSGSSSNVGAGNYVGWFQQVPGSAPKLLIYGATNRASGVPARFSGSKSGVTATLTITSLQAEDEADYYCASIDTSRSHIFGSGTRLTVLG
modifications: E2A6 amino acid sequence
In the case of B7, the “Tau proteins/fragments” value under setting [1] was 297-391 (dGAE).

B8: 412G11: C-terminal anti-tau clone, Table 5; SEQ ID NO: 434 (protein)
chain: QVRLQESGPSLVKPSQTLSLTCTVSGFSLTSYALGWVRQAPGRAPEWIGNIWRGGRIEYNPALKSRLSITRDTSKSQVSLSLSSVTTEDTAVYYCSRSGGDWGPGLLVTVSSEGKSSGASGESKVDDQAVLTQPSSVSGSLGQRVSITCSGSSSNVGYGNYVGWYQQVPGSAPKLLIYGATSRASGVPDRFSGSRSENTATLTISSLQAEDEADYYCASYDRSESVVFGSGTRLTVLG
modifications: 412G11 amino acid sequence
For B8, the Epitope was 412-441.

B9: 412E6: C-terminal anti-tau clone, Table 5; sequence in b349 (protein)
scAb: QVQLQESGPSLVKPSETLSLTCTVSGFSLTNYGVGWVRQAPGKALEWLGNIYSGGSTYYNPALKSRLSITRDTSKSQVSLSLNSVTLEDTAVYYCGRGGVGSVDVWGPGLLVTVSSEGKSSGASGESKVDDQAVLTQPPSVSGSPGQRVSITCSGGRNNIGRGTFVDWYQQLPGSGLKTVIYGTDRRPPGVPDRFSGSKTGNAATLTITSLQAEDEADYWCATYDYSNDMIILGSGTRLTVLG
In the case of B9, the Epitope is listed as 412-441.

B10: CA7: anti-tau clone, Table 10; VH SEQ ID NO: 503, VL 504 (antibody, V domains shown)
VH: RVRLQGSGPSLVKPSQTLSLTCTVSGFSFDSYYVGWVRQAPGKALEWLGNIYSTGRAFYNPALKSRLSITRDTSKSQVSLSVSSVTIEDTALYYCVRGSYYHGGGNGMVDFFDYWSPGLLVTVSS
VL: QVVRTQPSSVSGSLGQRVSITCSGSSSNVGYGNYVGWFQQVPGSAPKLLIYAATSRASGVPDRFSGSRSGNTATLTIDSLQAEDEADYYCSSYQRGNTGVFGSGTRLTVLG
modifications: CA7 VH Domain; CA7 VL Domain
On to B10, for which the Epitope was 1-319. Moreover, for the setting “Table 17, 'C' group scAbs”, the “Tau proteins/fragments” value is recorded as “hT40, 1-319” and the “Shortest region bound on hT40” value is given as 1-319.

B11: ME12: sheep-derived anti-tau clone, CDRs in Table 1 (protein)
CDR 1: SNAVG
CDR 2: GCSSDGKCYHNSALKS
CDR 3: GFYSIYGYDYSGTIDY
CDR 4: SGSSSNVGGGNSVG
CDR 5: NTNSRPS
CDR 6: VTGDSSTHDDL
modifications: VHCDR1 ME12, NS3D9; VHCDR1 S1D2, S1H6, S2C3; VHCDR1 MC5, MD12; VHCDR1 3aA6, VHCDR1 CE3; VHCDR2 ME12; VHCDR3 ME12; VLCDR1 S1D12, ME12; VLCDR2 ME12; VLCDR3 ME12
Consider B11, for which the Epitope was 337-355. In addition, where the note is “Table 16, NS, S and M clones”, the “Tau proteins/fragments” value was “hT40, 297-390 (dGA), 297-391 (dGAE), 341-353, 337-349, 339-351” and the “Shortest region bound on hT40” value is given as 337-355.

B12: S1F4: anti-tau clone, Table 2; SEQ ID NO: 414 (protein)
scFv: QVQLQESGPSLVKPSQTLSLTCTVSGFSLSSNSVGWVRQAPGKAPEWVAGIDTDGEEGYNPALNSRLSITRDTSKSQVSLSLSSVTSEDTAVYYCVRSYRADGLAYGYVQAIDYWGPGLLLTISSEGKSSGASGESKVDDQAVVTQPSSVSGSLGQRVSITCSGSFIGISSVGWFQQLPGSGLRTVIVASDGRPSGVPDRFSNSKSGNTATLTISSLQAEDEADYFCGSSDRTQYTGVFGSGTRLTVLG
modifications: S1F4 amino acid sequence
Take B12: the Epitope was 367-379. Further, under “Table 16, NS, S and M clones”, the “Tau proteins/fragments” value is listed as “hT40, 297-390 (dGA), 297-391 (dGAE), 369-390, 369-391” and the “Shortest region bound on hT40” value is 367-379.

B13: S1B1: anti-tau clone, Table 2; SEQ ID NO: 412 (protein)
scFv: QVQLQESGPSLVKPSQTLSLTCTVSGFSLSSNSVGWVRQAPGKAPEWVAGIDTDGEEGYNPALNSRLSITRDTSKSQVSLSLSSVTSEDTAVYYCVRSYRTDGLAYGYVQAIDYWGPGLLVTVSSEGKSSGASGESKVDDQAVLTQPSSVSGSLGQRVSITCSGSFIGISSVGWFQQLPGSGLRTVIVASDGRPSGVPDRFSNSKSGNTATLTISSLQAEDEADYFCGSSDRTQYTGVFGSGTRLTVLG
modifications: S1B1 amino acid sequence
Turning to B13, the Epitope is listed as 367-379. For the same molecule, under “Table 16, NS, S and M clones”, the “Tau proteins/fragments” value is listed as “hT40, 297-390 (dGA), 297-391 (dGAE)” and the “Shortest region bound on hT40” value is 367-379.
